Measurements published in paper PMC3229523, “Identification of Lactoferricin B Intracellular Targets Using an Escherichia coli Proteome Chip” (PLoS ONE, 2011).
Ends that are not written are not given here. * marks the point of attachment. Biotin = O=C1N[C@H]2[C@H](CS[C@H]2CCCCC(=O)*)N1

Key:
Assay in all cases: peptide or protein array; E. coli proteome chip: purified His-tagged proteins printed in duplicate on Fullmoon slides, blocked with 1% BSA; 10 nM N-terminal biotinylated LfcinB with 1% BSA, room temperature, 1 h; detected with DyLight 649-labeled streptavidin, ratio to DyLight 549-labeled anti-His antibody; ProCAT normalisation, local cut-off; triplicate chips
Details in all cases: both partners purified
YjdI = target: T1, YjdI (E. coli K-12, UniProt P0AF59 1-76)
T1 construct: YjdI, E. coli K-12
T1 sequence (looked up): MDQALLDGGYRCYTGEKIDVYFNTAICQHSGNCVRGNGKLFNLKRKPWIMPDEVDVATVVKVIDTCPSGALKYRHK

YbbN = target: T2, YbbN (E. coli K-12, UniProt P77395 1-284)
T2 construct: YbbN, E. coli K-12
T2 sequence (looked up): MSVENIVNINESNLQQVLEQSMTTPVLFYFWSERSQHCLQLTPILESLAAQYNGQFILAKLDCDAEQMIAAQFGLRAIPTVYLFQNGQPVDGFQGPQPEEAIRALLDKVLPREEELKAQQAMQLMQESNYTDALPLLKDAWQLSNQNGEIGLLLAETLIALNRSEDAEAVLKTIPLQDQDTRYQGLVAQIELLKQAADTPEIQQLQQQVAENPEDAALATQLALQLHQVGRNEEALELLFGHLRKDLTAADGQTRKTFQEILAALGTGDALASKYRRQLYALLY

YbaO = target: T3, YbaO (E. coli K-12, UniProt P0ACJ5 1-152)
T3 construct: YbaO, E. coli K-12
T3 sequence (looked up): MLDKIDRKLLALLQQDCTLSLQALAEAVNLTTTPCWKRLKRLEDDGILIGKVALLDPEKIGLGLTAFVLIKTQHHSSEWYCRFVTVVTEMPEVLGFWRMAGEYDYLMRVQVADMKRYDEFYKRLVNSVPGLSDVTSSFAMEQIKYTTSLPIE

YbeY = target: T4, YbeY (E. coli K-12, UniProt P0A898 1-155)
T4 construct: YbeY, E. coli K-12

SoxS = target: T5, SoxS (E. coli K-12, UniProt P0A9E2 1-107)
T5 construct: SoxS, E. coli K-12
T5 sequence (looked up): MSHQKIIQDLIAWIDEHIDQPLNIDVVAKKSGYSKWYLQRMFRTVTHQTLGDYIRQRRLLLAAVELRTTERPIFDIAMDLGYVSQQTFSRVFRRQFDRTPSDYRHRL

DnaT = target: T6, DnaT (E. coli K-12, UniProt P0A8J2 1-179)
T6 construct: DnaT, E. coli K-12
T6 sequence (looked up): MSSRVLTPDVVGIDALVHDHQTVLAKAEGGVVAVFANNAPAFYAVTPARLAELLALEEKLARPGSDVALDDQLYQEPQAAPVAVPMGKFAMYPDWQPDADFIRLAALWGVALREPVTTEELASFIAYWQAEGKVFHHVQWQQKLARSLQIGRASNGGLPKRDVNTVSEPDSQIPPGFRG

RhaR = target: T7, RhaR (E. coli K-12, UniProt P09378 1-282)
T7 construct: RhaR, E. coli K-12
T7 sequence (looked up): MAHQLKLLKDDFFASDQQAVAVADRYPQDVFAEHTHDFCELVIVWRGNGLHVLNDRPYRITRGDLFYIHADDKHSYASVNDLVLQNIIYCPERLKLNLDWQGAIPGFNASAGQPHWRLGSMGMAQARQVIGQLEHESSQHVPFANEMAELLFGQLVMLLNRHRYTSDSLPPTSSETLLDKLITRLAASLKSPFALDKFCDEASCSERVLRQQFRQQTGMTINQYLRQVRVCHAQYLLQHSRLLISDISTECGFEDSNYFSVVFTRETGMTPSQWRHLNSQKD

YfbR = target: T8, YfbR (E. coli K-12, UniProt P76491 1-199)
T8 construct: YfbR, E. coli K-12
T8 sequence (looked up): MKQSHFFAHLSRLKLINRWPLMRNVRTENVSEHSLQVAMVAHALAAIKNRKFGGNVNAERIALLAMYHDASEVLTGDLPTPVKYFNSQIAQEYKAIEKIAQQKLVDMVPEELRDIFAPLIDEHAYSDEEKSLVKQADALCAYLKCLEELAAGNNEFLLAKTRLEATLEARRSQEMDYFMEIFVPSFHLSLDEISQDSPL

Measured: binding result

T4 sequence (P0A898 whole entry): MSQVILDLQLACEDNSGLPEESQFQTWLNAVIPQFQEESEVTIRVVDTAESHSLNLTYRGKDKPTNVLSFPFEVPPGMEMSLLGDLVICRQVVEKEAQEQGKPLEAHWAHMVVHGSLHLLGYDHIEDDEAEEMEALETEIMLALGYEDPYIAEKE

B1: N-terminal biotinylated Lactoferricin B (peptide, UniProt P24627 36-60, looked up)
peptide: Biotin-FKCRRWQWRMKKLGAPSITCVRRAF
modifications: ends and bridges not checked
notes: lactoferricin B (LfcinB), cationic antimicrobial peptide of 25 amino acids; also called biotinylated LfcinB; biotin-labeled LfcinB; source: bought: Kelowna Inc
binds: YjdI | YbbN | YbaO | YbeY | SoxS | DnaT | RhaR | YfbR
